± gives the uncertainty stated by the source.
Assay: self-splicing fitness, log relative to wild type (ln ratio); higher = more splicing; Tetrahymena group I intron in knt gene, E. coli kanamycin selection, DiMSum; sequences stand for … in CUCUCU…GGAGGGAAAAGUUAUCAGGCAUGCACCUGGUAGCUAGUCUUUAAACCAAUAGAUUGCAUCGGUUUAAAAGGCAAGACCGUCAAAUUGCGGGAAAGGGGUCAACAGCCGUUCAGUACCAAGUCUCAGGGGAAACUUUGAGAUGGCCUUGCAAAGGGUAUGGUAAUAAGCUGACGGACAUGGUCCUAACCACGCAGCCAAGUCCUAAGUCAACAGAUCUUCUGUUGAUAUGGAUGCAGUUCACAGACUAAAUGUCGGUCGGGGAAGAUGUAUUCUUCUCAUAAGAUAUAGUCGGACCUCUCCUUAAUGGGAGCUAGCGGAUGAAGUGAUGCAACACUGGAGCCGCUGGGAACUAAUUUGUAUGCGAAAGUAUAUUGAUUAGUUUUGGAGUACUCGUGGUCG
Procedure, shortened: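 Pooled colonies went to amplicon sequencing on an Illumina HiSeq 2500 after six replicate transformations. The plates were LB agar with 100 μg/mL carbenicillin, 50 μM IPTG and 0.2% rhamnose, with or without 25 μg/mL kanamycin, incubated overnight at 37°C or 30°C. The E. coli BL21(DE3) library had all eight P1ex-region intron nucleotides randomised, the intron placed in the knt kanamycin-resistance gene on pET-22b(+). DiMSum fitness is the error-weighted combination of replicate fold changes, kanamycin against none, normalised to wild type.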

| Sequence | self-splicing fitness (ln) (30 °C) | self-splicing fitness (ln) (37 °C) |
| --- | --- | --- |
| CGCCAGCAAUAUUACGCGGC | -4.11 ± 0.47 | -3.03 ± 0.27 |
| CCCAAGCAAUAUUACGGAAC | -3.54 ± 0.21 | -2.62 ± 0.25 |
| GUUCAGCAAUAUUACGGCAG | -2.82 ± 0.28 | -1.82 ± 0.31 |
| GAGCAGCAAUAUUACGUCCG | -0.984 ± 0.3 | -0.968 ± 0.41 |
| GCCCAGCAAUAUUACGCCAC | -4.89 ± 0.38 | -2.44 ± 0.18 |
| CGAGAGCAAUAUUACGGGGG | -3.83 ± 0.43 | -3.14 ± 0.47 |
| CCUGAGCAAUAUUACGCCUU | -2.73 ± 0.28 | -2.01 ± 0.2 |
| UACUAGCAAUAUUACGCCUC | -2.28 ± 0.24 | -1.78 ± 0.28 |
| AUAUAGCAAUAUUACGACGC | -1.91 ± 0.27 | -0.93 ± 0.29 |
| GAUGAGCAAUAUUACGCGCG | -1.68 ± 0.23 | -0.518 ± 0.17 |
| UAUAAGCAAUAUUACGAAAC |  | -0.0191 ± 0.39 |
| AGAUAGCAAUAUUACGAGCU | -0.432 ± 0.13 | -1.02 ± 0.13 |
| CCGAAGCAAUAUUACGUGAA | -3.64 ± 0.16 | -2.82 ± 0.14 |
| GAAUAGCAAUAUUACGACAC | -0.0325 ± 0.3 | -0.0524 ± 0.23 |
| GGCUAGCAAUAUUACGCGCU | -2.76 ± 0.25 | -2.42 ± 0.3 |
| GGUAAGCAAUAUUACGGGAC | -2.69 ± 0.29 | -1.27 ± 0.2 |
| GCCGAGCAAUAUUACGCUCU | -0.992 ± 0.2 | -0.494 ± 0.21 |
| UCGCAGCAAUAUUACGGAAG | -2.74 ± 0.25 | -1.74 ± 0.22 |
| GAAUAGCAAUAUUACGGAGA | -3.11 ± 0.47 | -2.56 ± 0.45 |
| CAGUAGCAAUAUUACGGUCA |  | -1.71 ± 0.28 |
| GGGAAGCAAUAUUACGAGUA |  | -2.29 ± 0.36 |
| UCGAAGCAAUAUUACGUUGU | -2.09 ± 0.19 | -2.33 ± 0.2 |

| Sequence | self-splicing fitness (ln) (30 °C) | self-splicing fitness (ln) (37 °C) |
| --- | --- | --- |
| CUGGAGCAAUAUUACGAUAC | -2.26 ± 0.22 |  |
| CCAUAGCAAUAUUACGGGCC |  | -1.32 ± 0.23 |
| UCCCAGCAAUAUUACGGUGA | -1.57 ± 0.11 | -1.02 ± 0.11 |
| UGGCAGCAAUAUUACGUCUC | -1.64 ± 0.11 | -0.21 ± 0.13 |
| CCCAAGCAAUAUUACGAACC |  | -2.59 ± 0.35 |
| AUUGAGCAAUAUUACGAUUU | -1.11 ± 0.09 | -0.383 ± 0.11 |
| UUAUAGCAAUAUUACGAACG | -0.792 ± 0.17 | -0.293 ± 0.21 |
| CUUCAGCAAUAUUACGGAAU | -1.46 ± 0.13 | -1.17 ± 0.14 |
| UUUAAGCAAUAUUACGCGCC | -1.12 ± 0.18 | -1.4 ± 0.26 |
| CCGCAGCAAUAUUACGAGCA | -3.01 ± 0.38 | -3.24 ± 0.47 |
| CGAUAGCAAUAUUACGAUGA | -1.8 ± 0.17 | -0.503 ± 0.2 |
| AAUUAGCAAUAUUACGUACA | -0.782 ± 0.086 | -0.498 ± 0.096 |
| UCACAGCAAUAUUACGCUAU |  | -2.23 ± 0.21 |
| CAGUAGCAAUAUUACGUCGC |  | -2.7 ± 0.4 |
| GCUGAGCAAUAUUACGUAAA | -2.97 ± 0.19 | -2.31 ± 0.17 |
| CUUAAGCAAUAUUACGUCCU | -3.41 ± 0.21 | -2.43 ± 0.19 |
| GGGAAGCAAUAUUACGACUG | -0.222 ± 0.088 | -0.457 ± 0.11 |
| CGUGAGCAAUAUUACGAACG | -2.89 ± 0.38 |  |
| GAGAAGCAAUAUUACGCCGA | -2.1 ± 0.24 | -0.228 ± 0.17 |
| CCUUAGCAAUAUUACGUAUU | -4.45 ± 0.29 | -2.82 ± 0.22 |
| AUGCAGCAAUAUUACGCUCG | -1.89 ± 0.11 | -0.774 ± 0.13 |
| CGAUAGCAAUAUUACGACGU | -0.903 ± 0.065 | 0.0313 ± 0.07 |

| Sequence | self-splicing fitness (ln) (30 °C) | self-splicing fitness (ln) (37 °C) |
| --- | --- | --- |
| UGUCAGCAAUAUUACGAUAA | -0.114 ± 0.06 | 0.438 ± 0.074 |
| ACGUAGCAAUAUUACGCAUG | -2.97 ± 0.15 | -0.981 ± 0.11 |
| AAUCAGCAAUAUUACGCCCA | -0.426 ± 0.16 | 0.216 ± 0.21 |
| AGACAGCAAUAUUACGUCAG | -2.3 ± 0.092 | -0.807 ± 0.11 |
| ACACAGCAAUAUUACGAAGG | -1.75 ± 0.061 | -2.18 ± 0.11 |
| AUAUAGCAAUAUUACGGGGA | -2.21 ± 0.32 | -1.72 ± 0.41 |
| AACGAGCAAUAUUACGUGCA | -2.58 ± 0.13 | -2.01 ± 0.18 |
| UAGUAGCAAUAUUACGCAAA | -3.4 ± 0.3 | -2.28 ± 0.2 |
| UUGGAGCAAUAUUACGCGAU | -2.54 ± 0.33 | -0.423 ± 0.35 |
| GUCCAGCAAUAUUACGGCUC | -0.432 ± 0.077 | 0.909 ± 0.12 |
| AGCCAGCAAUAUUACGUCAA | -3.18 ± 0.22 | -2.53 ± 0.21 |
| AUUGAGCAAUAUUACGUUAC |  | -1.76 ± 0.3 |
| UGGGAGCAAUAUUACGCGGA |  | -2.73 ± 0.34 |
| AUCUAGCAAUAUUACGCUCU | -0.469 ± 0.11 | -0.244 ± 0.12 |
| ACUCAGCAAUAUUACGUCCC | -0.969 ± 0.13 | -0.71 ± 0.16 |
| CGUUAGCAAUAUUACGCCAG | -0.657 ± 0.22 | 0.474 ± 0.35 |
| CACUAGCAAUAUUACGAGCG | -0.458 ± 0.083 | 0.257 ± 0.086 |
| UGGAAGCAAUAUUACGUGUG | -1.06 ± 0.073 | -0.706 ± 0.091 |
| GGUGAGCAAUAUUACGCAUG | -1.48 ± 0.11 | -0.697 ± 0.15 |
| GCUGAGCAAUAUUACGGGAC | -1.25 ± 0.13 | -2.16 ± 0.22 |
